From CN116239682A (WUHAN INST OF BIOLOGICAL PRODUCTS CO LTD, dated 2023) come the findings set out here.

For test [1], the target named is T1, CV-A4结构蛋白VP1的1号肽段 (VP1前1-15氨基酸) (Coxsackievirus A4).
T1 construct: Synthetic peptide; also called VP1 1-15
T1 peptide: GDAIADAIQNTVTTT
Kind of test: indirect ELISA on coated overlapping VP1 peptides, 7H11E 1μg/ml.

For test [2], the target named is T2, VP1-7A-G (Coxsackievirus A4).
T2 construct: Synthetic single-site mutant peptide; also called VP1 1-15 peptide, position 7 A-G
T2 peptide: GDAIADGIQNTVTTT
Kind of test: indirect ELISA on coated mutant peptide (+ means ELISA positive).

In test [3] the target is T3, VP1-8I-G (Coxsackievirus A4).
T3 construct: Synthetic single-site mutant peptide; also called VP1 1-15 peptide, position 8 I-G
T3 peptide: GDAIADAGQNTVTTT
Described as above.

In test [4] the target is T4, VP1-9Q-G (Coxsackievirus A4).
T4 construct: Synthetic single-site mutant peptide; also called VP1 1-15 peptide, position 9 Q-G
T4 peptide: GDAIADAIGNTVTTT
Described as above.

Test [5] deals with T5, VP1-10N-G (Coxsackievirus A4).
T5 construct: Synthetic single-site mutant peptide; also called VP1 1-15 peptide, position 10 N-G
T5 peptide: GDAIADAIQGTVTTT
The test is described as above.

The target of test [6] is T6, VP1-11T-G (Coxsackievirus A4).
T6 construct: Synthetic single-site mutant peptide; also called VP1 1-15 peptide, position 11 T-G
T6 peptide: GDAIADAIQNGVTTT
Described as above.

Test [7] addresses T7, VP1-12V-G (Coxsackievirus A4).
T7 construct: Synthetic single-site mutant peptide; also called VP1 1-15 peptide, position 12 V-G
T7 peptide: GDAIADAIQNTGTTT
Described as above.

Test [8] deals with T8, VP1-13T-G (Coxsackievirus A4).
T8 construct: Synthetic single-site mutant peptide; also called VP1 1-15 peptide, position 13 T-G
T8 peptide: GDAIADAIQNTVGTT
The description is as above.

Test [9] addresses T9, VP1-14T-G (Coxsackievirus A4).
T9 construct: Synthetic single-site mutant peptide; also called VP1 1-15 peptide, position 14 T-G
T9 peptide: GDAIADAIQNTVTGT
The test is described as above.

Test [10] has as its target T10, VP1-15T-G (Coxsackievirus A4).
T10 construct: Synthetic single-site mutant peptide; also called VP1 1-15 peptide, position 15 T-G
T10 peptide: GDAIADAIQNTVTTG
Described as above.

For test [11], the target named is T11, VP1-5A-G (Coxsackievirus A4).
T11 construct: Synthetic single-site mutant peptide; also called VP1 1-15 peptide, position 5 A-G
T11 peptide: GDAIGDAIQNTVTTT
The description is as above.

Test [12] addresses T12, VP1-2D-G (Coxsackievirus A4).
T12 construct: Synthetic single-site mutant peptide; also called VP1 1-15 peptide, position 2 D-G
T12 peptide: GGAIADAIQNTVTTT
Kind of test: indirect ELISA on coated mutant peptide (- means ELISA negative). A general note: An ELISA detects its analyte on a solid surface through an enzyme-linked reagent.

Test [13] concerns the target T13, VP1-3A-G (Coxsackievirus A4).
T13 construct: Synthetic single-site mutant peptide; also called VP1 1-15 peptide, position 3 A-G
T13 peptide: GDGIADAIQNTVTTT
Described as above.

Test [14] addresses T14, VP1-4I-G (Coxsackievirus A4).
T14 construct: Synthetic single-site mutant peptide; also called VP1 1-15 peptide, position 4 I-G
T14 peptide: GDAGADAIQNTVTTT
Described as above.

The target of test [15] is T15, VP1-6D-G (Coxsackievirus A4).
T15 construct: Synthetic single-site mutant peptide; also called VP1 1-15 peptide, position 6 D-G
T15 peptide: GDAIAGAIQNTVTTT
Described as above.

B1: 单克隆抗体7H11E (antibody, V domains shown)
VH: SGPGLVAPSQSLSITCTVSGFSLPSYDVHWVRQPPGKGLEWLGVIWAGGSTHYNSALMSRLSISKDNSKSQVFLKMNSLQTDDTAMYYCAGLRAFAMDYWGQGTSVTVSS
VL: PIVLTQSPAILSVSPGERVSFSCRASQSIGTNIHWYQQGANGSPRLLIKYASESISGIPSRFSGSGSGTDFTLSINSVESEDIADYYCQQSNSWPWTFGGGTKLEIQR
notes: Mouse hybridoma antibody purified from ascites, IgG2b subtype; also called 7H11E单克隆抗体
Regarding B1, the binding result in test [1], in [2], in [3], in [4], in [5] and in [6] was “binds” throughout. The binding result in test [7] is recorded as “binds”; in test [8] it was “binds”; in test [9], “binds”; in [10] it was “binds”; in [11] it was “binds”; in [12], “no binding”. For the same molecule, the binding result in test [13], in test [14] and in test [15] was “no binding” throughout.
